The values below come from patent publication US20240025988A1 (GlaxoSmithKline, published 2024).

Assay [1] concerns the target T1, human IL-7 (human, UniProt P13232 26-177).
T1 sequence: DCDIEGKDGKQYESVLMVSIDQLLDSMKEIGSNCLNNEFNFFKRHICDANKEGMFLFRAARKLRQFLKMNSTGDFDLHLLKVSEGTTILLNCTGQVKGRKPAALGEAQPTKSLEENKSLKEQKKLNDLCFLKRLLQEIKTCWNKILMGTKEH
Kind of assay: cell-based or functional assay.

The target of assay [2] is T2, cynomolgus monkey IL-7 (cynomolgus monkey, UniProt A0A2K5W745 26-178).
T2 construct: also called cynoIL-7; cynomolgus IL-7
T2 sequence: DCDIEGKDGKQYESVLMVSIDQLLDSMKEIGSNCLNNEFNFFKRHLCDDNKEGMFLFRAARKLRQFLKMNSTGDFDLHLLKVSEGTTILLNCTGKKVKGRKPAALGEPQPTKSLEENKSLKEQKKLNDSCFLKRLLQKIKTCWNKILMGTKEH
Put plainly: SPR, Biacore 8K, 37 °C, IL-7 as analyte. The text has this: (§1) (Table 5). […] (Table 5).

Assay [3] concerns the target T1, human IL-7. Kind of assay: SPR, Biacore 8K, 37 °C, IL-7 as analyte.
Description: as §1

In assay [4] the target is T2, cynomolgus monkey IL-7. Kind of assay: SPR, Biacore 8K, 25 °C, IL-7 as analyte.
Description: as §1

Assay [5] concerns the target T1, human IL-7. Put plainly: SPR, Biacore 8K, 25 °C, IL-7 as analyte.
Description: as §1

Assay [6] addresses T1, human IL-7. Put plainly: SPR, Biacore 8K, 37 °C; geometric mean KD from all experiments, with 85% confidence interval in brackets.
Assay [7] deals with T2, cynomolgus monkey IL-7. Put plainly: SPR, Biacore 8K, 37 °C (text value; Table 5 prints 73); 37 C; value of the running text.
Description: as §1

Assay [8] has as its target T1, human IL-7. Put plainly: cell-based or functional assay. The source holds these as a separate data set.

Substitutions are numbered along the chain they refer to. Values joined by “and” are separate entries in the source; they are usually repeats but may differ in a detail not shown here. Identical values can stand only once.

B1: DRSPAI-L7B (antibody, human IgG1, kappa, V domains shown)
VH: QVQLVESGGGVVQPGRSLRLSCAASGFTFSSYGVHWVRQAPGKGLEWLAAIWTGGSTDYNSAFSSRFTISRDNSKNTLYLQMNSLRAEDTAVYYCARNGYGESFAYWGQGTLVTVSS
VL: DIQMTQSPSSLSASVGDRVTITCKASESLDHDGDSYINWYQQKPGKAPKLLIYMGSNVEFGVPARFSGSGSGTDFTLTISSLQPEDFATYYCQQSNVDPLTFGGGTKVEIKR
notes: Human IgG1 kappa; also called DRSPAI-171B; DRSPAI-17B
In the case of B1, in the assay with human IL-7 [1], the “IL-6 secretion by CD4+ Tmem cells, IC50” value came out at 202 pM; the “IL-10 secretion by PBMC (rhIL-7 and anti-CD3), mean IC50” value was determined as 207 pM; the “TNFα secretion by CD4+ Tmem cells, IC50” value was 127 pM. In the assay with cynomolgus monkey IL-7 [2], the affinity, expressed as Kd, was 73 pM; the off-rate constant (koff) stood at 0.000462 s⁻¹; the kon was determined as 6.17e+06 M⁻¹ s⁻¹. Besides, in the assay with human IL-7 [3], the Kd is 69 pM and 46 pM and 75 pM and 87 pM; the koff was 0.000568 s⁻¹ and 0.000678 s⁻¹ and 0.000826 s⁻¹ and 0.000515 s⁻¹; the on-rate (kon) is 8.28e+06 M⁻¹ s⁻¹ and 1.47e+07 M⁻¹ s⁻¹ and 1.1e+07 M⁻¹ s⁻¹ and 5.9e+06 M⁻¹ s⁻¹. In the assay with cynomolgus monkey IL-7 [4], the dissociation constant Kd turned out to be 53 pM, the off-rate (koff) was found to be 0.00017 s⁻¹ and the kon stood at 3.17e+06 M⁻¹ s⁻¹. For the same molecule, in the assay with human IL-7 [5], the Kd was 31 pM and 34 pM; the koff was 0.000206 s⁻¹ and 0.000158 s⁻¹; the association rate constant (kon) is 6.49e+06 M⁻¹ s⁻¹ and 4.65e+06 M⁻¹ s⁻¹. For the same molecule, the affinity with human IL-7 [6], expressed as Kd, was 67.4 pM. For the same molecule, the dissociation constant (Kd) with cynomolgus monkey IL-7 [7] was around 75 pM. Besides, in the assay with human IL-7 [8], the “IFN-γ production by PBMC, IC50 (IL-7 10 ng/ml, anti-CD3)” value is 196 pM and 29.4 ng/ml; the “IL-17 production by Tmem, IC50 (IL-7 20 ng/ml)” value is 40.5 ng/ml and 270 pM; the “Teff and Tmem proliferation (CD4+), IC50 (IL-7 10 ng/ml)” value was 79.5 ng/ml and 530 pM; the “Teff and Tmem proliferation (CD4+), IC50 (IL-7 20 ng/ml)” value is 78 ng/ml and 520 pM. In the assay with human IL-7 [8], the “pSTAT5 in CCRF-CEM cells, IC50 (IL-7 0.034 ng/ml, 2 pM)” value is < 0.15 ng/ml and < 1 pM; the “pSTAT5 in whole blood (CD4+ T cells), median IC50 (IL-7 1 ng/ml)” value was 5.1 ng/ml and 34 pM.

B2: A1290 (antibody, human IgG1, kappa, V domains shown)
VH: B1 VH with V34L, S61A, S64I
VL: B1 VL with E27Q, L29V, H31D, Y36F, M54V, G55A, V58L, F60S, V97E
With B2, the “pSTAT5 in whole blood (CD4+ T cells), median IC50” value with human IL-7 [1] was 18 pM and 0.00275 µg/ml.

B3: A1291 (antibody, human IgG1, kappa, V domains shown)
VH: B1 VH with V34L, S61A, A62E
VL: B1 VL with E27H, L29V, H31D, I37M, G55A, V58L, F60S, V97E
With B3, the “pSTAT5 in whole blood (CD4+ T cells), median IC50” value in the assay with human IL-7 [1] was 16 pM and 0.00246 µg/ml.

B4: A1294 (antibody, human IgG1, kappa, V domains shown)
VH: B1 VH with S31T, T53S, S61V
VL: B1 VL with E27Q, L29V, H31D, I37M, G55A, V58L, F60S, V97E
Consider B4, for which the “pSTAT5 in whole blood (CD4+ T cells), median IC50” value in the assay with human IL-7 [1] was 76 pM and 0.0114 µg/ml.
